Test results: the supplement of paper PMC10567573

B1: BTBD1 (parent)
chain: IVGFGLYGSIHGPTDYQVNIQIIE
B2: HSP90AB1 (parent)
chain: TLRQKAEADKNDKAVKDLVVLLFE

Variants of: B1
Experiment: protein stability index of a GFP-peptide fusion (GPS, HEK-293T) (PSI 1-6); higher = more stable
Conditions: c terminus: a fixed tail appended
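Also: lentivirally expressed fusions sorted by FACS into six bins by GFP to DsRed ratio, PSI derived from sequencing read proportions per bin multiplied by bin number.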

Protein stability index: each site, then its substitutions
P13: V 2.33, D 1.76, Q 3.17, C 2.51, R 2.35, W 2.76, T 2.81, G 1.57, M 2.48, I 4.51, A 2.3, L 2.25, F 2.72
G8: I 2.28, F 2.78, K 2.89, M 2.04, H 2.61, N 2.5, Q 3.42, R 1.45, D 2.86, T 2.37, P 4.75, L 2.81, Y 2.35
L6: P 3.27, V 3.11, Y 3.48, A 3.31, D 2.33, E 2.02, R 2.67, G 4.42, T 2.16, M 1.94, F 4.24, H 3.36, W 1.76, Q 3.25, N 2.56, I 2.75
H11: C 2.58, N 3.26, K 1.55, P 2.57, V 3.12, D 1.97
I10: V 2.09, E 2.58, D 2.74, P 2.78, F 3.05, M 1.95, K 1.76, C 3.14, Q 3.45, G 5.97, W 1.64, T 3.32
F4: M 2.47, S 2.07, I 3.05, D 2.64, L 3.57, P 1.87, C 2.29, K 2.39, A 1.97, R 2.25, G 1.56, W 1.8, H 2.54, T 2.1, Q 1.9
Y7: S 2.47, K 3.4, P 3.54, R 4.6, F 1.86, V 2.16, E 3.6, N 2.96, W 3.5, C 2.57, H 3.81, M 2.82, G 2.06
I1: E 3.29, C 2.91, N 2.16, D 2.03, Q 3.04, V 3.69, S 1.77, K 2.14, F 3.14, H 2.38, P 1.82, R 1.65, T 1.82, G 3.43
G5: P 2.36, Y 3.17, R 2.57, N 3.75, Q 3.76, A 4.32, T 2.89, C 2.63, W 2.79, D 2.4, S 1.62, H 2.33, K 2.34, M 2.92
V2: A 2.81, W 3.31, D 2.79, M 2.49, C 3.88, R 2.96, Q 4.24, K 2.02, I 2.6, P 1.76, G 2.59, Y 2.16
G3: A 3.04, F 3.55, R 4.02, V 3.82, N 3.38, E 2.82, D 3.42, K 3.18, S 1.66, W 4.95, P 2.64
S9: T 1.99, R 2.67, E 2.74, Y 2.58, N 3.18, A 1.82, I 2.88, H 1.88, V 3.54, Q 2.56, L 3.19, F 2.95, W 2.76
G12: E 3.19, I 1.72, S 3.04, K 4.19, L 3.53, W 2.56, M 2.27, Q 3.29, D 3.52, Y 1.89

Variants of: B2
Experiment: as above
Conditions: c terminus: a fixed tail appended

Protein stability index of substitutions, site by site:
K16: Q 3.75, W 3.02, D 3.36, E 3.06, M 2.86, Y 2.24
D17: R 1.98, E 2.96, S 2.58, Q 2.04, T 1.95, V 1.6, I 2.35, L 1.49, N 2.69, G 2.26, K 2.14
V20: R 2.88, D 5.3, N 4.46, T 3.48, Y 2.7, S 4.6, P 4.05, W 2.58
A6: Q 2.68, R 2.69, F 2.74, T 2.85, E 3.33, G 2.72
V19: P 4.38, W 2.7, N 3.91, Y 3.1, L 2.68, D 4.61, A 3.72, K 4.26, F 2.96, I 3.5
L21: S 3.44, Y 2.41, G 3.63, I 2.35, Q 3.52, P 4.61, V 3.06, D 4.26, E 3.98, K 2.91, A 2.67
A14: I 3, Q 2.92, F 2.02, T 2.57, K 3.1, H 2.79, D 2.58
T1: K 2.49, A 3.35, Q 3.54, H 3.09, W 2.51
K10: M 2.65, A 3.44, G 2.63, W 2.52, P 3.68
N11: T 3.37, I 2.98, V 2.89, C 2.88, Q 2.62, S 2.95, L 2.83, P 2.58, G 3.13
D12: F 2.24, C 2.59, H 2.56, R 3.48, L 2.73, Q 2.7, I 2, K 1.99, N 2.62
R3: K 3.36, L 3.11, S 3.58, C 2.75, I 3.18, Q 3.11, A 3.46, N 3.1
L18: P 4.21, Q 4.03, R 3.19, V 2.24, D 4.2, M 3.29, S 3.9, K 3.44
E7: K 2, L 2.54, D 2.79, R 2.29, Q 1.9, G 2.24, Y 1.79
K5: D 3.88, I 3.03, Q 4.01, A 3.12, G 3.87
F23: G 4.87, A 3.7, Q 4.55, Y 3.47, S 3.95, I 2.88, D 5.38
E24: V 2.01, I 2.54, N 2.44, T 2.14, W 1.97, F 1.83, H 2.79, K 2.06, D 2.83, C 1.43
V15: M 3.47, P 2.54, W 2.64, K 3.27, I 2.48
L2: V 3.15, S 3.05, W 2.43, Y 2.64, D 3.13
K13: W 1.73, V 2.91, A 3.19, F 1.93, G 2.77, I 2.47
D9: S 2.92, V 2.38, F 2.52, N 2.51, A 2.98, E 2.74, K 2.51
A8: G 3.9, P 2.21, H 2.85, Q 3.24, D 3.57
L22: K 4.47, Y 2.78, E 4.86, F 2.84, T 3.96, D 4.86, H 3.79, C 3.82
Q4: W 2.71, I 2.41, P 3.06, R 2.26
